Results as given in publication PMC3407951 (EMBO Molecular Medicine, 2012).

Columns and labels:
human NEP = human NEP (Homo sapiens, UniProt P08473); details: literature statement; ref Betts et al, [2008]; cited from earlier work
ADAM10 = test: 0.4 µg; details: human, 37°C, up to 24 h

human NEP, sequence (P08473 whole entry): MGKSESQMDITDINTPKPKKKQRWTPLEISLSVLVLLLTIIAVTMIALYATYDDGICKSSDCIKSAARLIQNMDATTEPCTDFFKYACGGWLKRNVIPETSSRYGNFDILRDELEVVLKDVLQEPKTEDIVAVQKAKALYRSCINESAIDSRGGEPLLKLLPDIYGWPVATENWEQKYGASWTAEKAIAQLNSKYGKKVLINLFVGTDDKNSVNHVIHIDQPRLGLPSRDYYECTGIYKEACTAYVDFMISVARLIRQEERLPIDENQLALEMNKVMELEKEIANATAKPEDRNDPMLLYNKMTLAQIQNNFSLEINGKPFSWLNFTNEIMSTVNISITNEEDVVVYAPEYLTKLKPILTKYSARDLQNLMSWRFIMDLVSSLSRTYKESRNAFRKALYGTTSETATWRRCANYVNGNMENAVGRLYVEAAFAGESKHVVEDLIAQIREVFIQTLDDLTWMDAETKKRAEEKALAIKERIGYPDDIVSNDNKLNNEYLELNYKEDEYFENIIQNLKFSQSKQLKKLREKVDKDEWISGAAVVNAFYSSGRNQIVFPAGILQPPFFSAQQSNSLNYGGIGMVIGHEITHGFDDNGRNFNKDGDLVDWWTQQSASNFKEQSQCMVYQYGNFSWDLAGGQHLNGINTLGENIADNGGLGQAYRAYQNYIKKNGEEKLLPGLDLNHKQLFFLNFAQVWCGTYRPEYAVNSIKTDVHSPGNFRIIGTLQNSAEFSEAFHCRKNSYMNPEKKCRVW

Substance	NEP-mediated degradation (human NEP)	fragment found (ADAM10)
Aβ40 A21G: Aβ40 peptide with the Flemish mutation A21G (literature)	attenuated	–
EVHHQNLVFFAEDVGSNK	–	Aβ11–16 K16N, minor, 5 h
